Reference: patent US5792742

Columns and labels:
[1] = molecular target: fibrin (fibrinogen dried on microtiter wells and converted with thrombin); assay: direct ELISA on fibrin-coated wells (FIGS. 27A and 28A)
[2] = molecular target: fibrin (fibrinogen dried on microtiter wells and converted with thrombin); assay: competitive ELISA on fibrin-coated wells, competitor biotinylated Fn (2.3 nM)
[3] = molecular target: fibrin (fibrinogen dried on microtiter wells and converted with thrombin); assay: direct ELISA on fibrin-coated plates (FIG. 27A)
[4] = molecular target: fibrin (fibrinogen dried on microtiter wells and converted with thrombin); assay: competitive ELISA on fibrin-coated wells, competitor biotinylated Fn (FIG. 29)
[5] = molecular target: fibrin (fibrinogen dried on microtiter wells and converted with thrombin); assay: competitive ELISA on fibrin-coated wells, competitor fibronectin (FIG. 29)
[6] = molecular target: fibrin (fibrinogen dried on microtiter wells and converted with thrombin); assay: competitive ELISA against intact Fn on fibrin
[7] = molecular target: fibrin (fibrinogen dried on microtiter wells and converted with thrombin); assay: competitive ELISA on fibrin-coated plates, competitor Fn (2.3 nM)
[8] = molecular target: fibrin (fibrinogen dried on microtiter wells and converted with thrombin); assay: competitive ELISA on fibrin-coated wells, Cheng and Prussoff equation from the IC50
[9] = molecular target: fibrin (fibrinogen dried on microtiter wells and converted with thrombin); assay: competitive ELISA on fibrin-coated wells, competitor biotinylated Fn (2.3 nM), 10 µM of the module pair
[10] = molecular target: fibrin (fibrinogen dried on microtiter wells and converted with thrombin); assay: competitive ELISA on fibrin-coated wells, reference intact Fn
[11] = molecular target: fibrin (fibrinogen dried on microtiter wells and converted with thrombin); assay: competitive ELISA on fibrin-coated wells, competitor biotinylated Fn (2.3 nM), 10 µM of the fragment
[12] = molecular target: fibrin-SEPHAROSE (bovine fibrinogen cross-linked to CNBr-activated SEPHAROSE and converted to fibrin with human thrombin) (bovine) (UniProt P02672); assay: fibrin-SEPHAROSE chromatography of 35S-labeled COS supernatant, densitometry of the autoradiogram
[13] = molecular target: fibrin (fibrinogen dried on microtiter wells and converted with thrombin); assay: displacement of bound 125I-11 kDa from fibrin-coated wells by 2,000 nM unlabeled 11 kDa
[14] = molecular target: fibrin (fibrinogen dried on microtiter wells and converted with thrombin); assay: direct ELISA on fibrin-coated wells, reference intact fibronectin
[15] = molecular target: fibrin (fibrinogen dried on microtiter wells and converted with thrombin); assay: competition on fibrin-coated wells, competitor 125I-11 kDa (90 nM)
fibrinogen-SEPHAROSE = assay: binding to a fibrinogen-SEPHAROSE column at 37° C. (material eluted with ethylene glycol)
[16] = molecular target: fibrin (fibrinogen dried on microtiter wells and converted with thrombin); assay: competitive ELISA on fibrin-coated plates, competitor Fn (2.3 nM), 50,000 molar excess
[17] = molecular target: fibrin (fibrinogen dried on microtiter wells and converted with thrombin); assay: direct binding of 125I-11 kDa to fibrin-coated wells (15 ng fibrin)
[18] = molecular target: fibrin (fibrinogen dried on microtiter wells and converted with thrombin); assay: direct binding of 125I-11 kDa to fibrin-coated removable wells, non-linear regression, one binding site model

Substance biotinylated fibronectin has a concentration at saturation of binding [1] of 4.5 nM.

human plasma fibronectin (intact) gave an IC50 [2] of 20 nM, a concentration for complete inhibition [2] of 2.2 µM and a concentration at 75% of the maximum binding [3] of 2.3 nM. The concentration at saturation of binding [3] was 4.54 nM.

For “recombinant ^4 F1.^5 F1 module pair of fibronectin (expressed in Saccharomyces cerevisiae) (peptide)”, the maximum % inhibition of Fn binding [4] was 67%, the % blocking of fibronectin binding [5] was 36% and the % inhibition (so in the source) [6] was 30%. The % inhibition of Fn binding at saturating concentration [7] was 70%, the IC50 [7] was 750 nM and the concentration at maximum inhibition [7] was 10 µM. For the same substance, the IC50 [2] was 700 nM, the Ki [8] was 695 nM and the maximal % inhibition of biotinylated Fn binding [9] was 67%.

For “25.9 kDa N-terminal proteolytic fibrin-binding fragment of fibronectin (peptide)”, the fold higher concentration than intact Fn for 50% inhibition [10] was 7.5 fold, the maximal % inhibition of biotinylated Fn binding [11] was 75% and the IC50 [2] was 150 nM. The Ki [8] was 145 nM.

With “^35 S-methionine labeled recombinant ^10 F1-end (expressed in COS cells) (peptide)” the % of bound protein released by warming to 22° C. [12] was 35% and the % of bound protein that required 6M urea for elution [12] was 65%.

“11 kDa C-terminal fibrin-binding fragment of fibronectin (peptide)” showed a % of bound iodinated 11 kDa displaced [13] of 42%, a times more bound than intact fibronectin (mole-per-mole) [14] of 20 times and an IC50 [15] of 605 nM. For the same substance, the concentration at maximum inhibition [15] was 4 µM and the % of the applied material bound (fibrinogen-SEPHAROSE) was 4 to 5%.

With “recombinant ^7 F1 module of fibronectin (peptide)” the % inhibition of Fn binding [16] was less than 20%.

With ^125 I-11 kDa fibrin-binding peptide the concentration at 50% saturation [17] was 90 nM and the Kd [18] was 154 nM.

In the case of “recombinant ^10 F1 module of fibronectin (peptide)”, the % inhibition of biotinylated Fn binding [2] is reported as 10%.
